Consider three molecules from patent US20250263440A1, “CD38-BINDING AGENTS AND USES THEREOF” (PeptiDream Inc., priority 2019, published 2025).

Read-outs that look alike come from different tables or passages of the source. Positions of bridges follow the written chain, without caps; N, C: chain ends. Non-standard residues stand in square brackets, D forms with d. Residues, ends and D or L forms follow the SMILES beside them. No end group written: not given here. Bip = N[C@@H](Cc1ccc(-c2ccccc2)cc1)C(=O)O; NMeF = CN[C@@H](Cc1ccccc1)C(=O)O; Ahp(2) = CCCCC[C@H](N)C(=O)O

The target of assay [1] is T1, CD38 (Homo sapiens, UniProt P28907).
T1 construct: purchased R&D Systems
Description: ELISA binding assay of I-1 / I-2 sequence variants to CD38. The note with it: compounds similar to I-2, larger values indicate stronger binding. The method, then: Recombinant human CD38 proteins were purchased from R&D Systems. In some embodiments, the following codons were used. ClAc-Ala: N-Chloroacetyl-L-alanine; MePhe: N-Methyl-L-phenylalanine; MeGly: N-Methyl-glycine; Ahp: (S)-2-aminoheptanoic acid; Bph: (S)-3-([1,1′-biphenyl]-4-yl)-2-aminopropanoic acid.
A number of compounds having similar structures to compound I-1 (difference being amino acid sequence) were prepared and assessed in an ELISA assay. The first sequence is of I-1, and SEQ ID.NO.1.
A number of compounds having similar structures to compound I-2 (difference being amino acid sequence) were prepared and assessed in an ELISA assay. The first sequence is of I-2, and SEQ ID NO. 2.
(In general: An ELISA detects its analyte on a solid surface through an enzyme-linked reagent.)

For assay [2], the target named is T1, CD38. As to the kind of experiment: SPR assay (BIACORE T200, Sensor Chip CM3, single-cycle kinetics) of binding to immobilized CD38. The settings on record: SPR Biacore T200, CM3 chip, HBS-EP with 1% DMSO. As for the experimental part: (§1) One of many useful technology for assessing CD38 binding is surface plasmon resonance (SPR). For example, the binding constant of I-1 (SEQ ID NO. 1; same as below) and I-2 (SEQ ID NO. 2; same as below) to CD38 was analyzed by a SPR assay using BIACORE T200 (cytiva: Former GE Healthcare). After the equilibration of Series S Sensor Chip CM3 (produced by cytiva: Former GE Healthcare) with Running Buffer (HBS-EP with 1% (v/v) DMSO), an EDC/NHS mixture was injected at a flow rate of […] for 4 minutes to thereby activate the functional groups on sensor chip. CD38 in 10 mM Acetate (pH5.5) was injected immobilized to at a flow rate of 5 L/min. For 4 minutes to immobilize the CD38 on the substrate surfaces of the sensor chip. Then Ethanolamine was injected at a flow rate of […] for 4 minutes. 1.0 M Ethanolamine (aq.) was injected at a flow rate of […] for 420 seconds for capping. 10 mM Peptides in DMSO were diluted to obtain 10 uM with Running Buffer, and prepared 100 nM, 50 nM, 25 nM, 10 nM, 5 nM of each peptide solutions (Peptide Samples).
Using these Peptide Samples, kinetics of peptides against CD38 was measured. The method adopted for sample measurement was a single-cycle kinetics method. The analysis was conducted using the evaluation software provided with Biacore T200. A DMSO correction curve obtained by solvent correction measurements was applied for the analysis. Kinetics fitting was done on the difference data obtained by subtracting the baseline data from sample measurement data.
(§2) KD values were calculated based on the association rate constant (ka) and dissociation rate constant (kd).
The binding constant of pegylated compounds was analyzed by a surface plasmon resonance as in the Example −2.
(SPR reads the build-up and loss of mass on a sensor chip optically.)

For assay [3], the target named is T2, Recombinant human CD38 protein (R&D Systems) (human, UniProt P28907 43-300). As to the kind of experiment: ELISA.
Assay [4] concerns the target T2, Recombinant human CD38 protein (R&D …). As to the kind of experiment: SPR (Biacore T200), single-cycle kinetics, CD38 immobilised on CM3 chip, 1:1 Binding model, 25 °C; figure legend names I-1 and the panel matches Table 4 (2.3*10^-9, rounded there). As for the experimental part:
as §1, with “For example, the binding constant of I-1 (SEQ ID NO. 1; same as below) and I-2 (SEQ ID NO. 2; same as below) to CD38 was analyzed by a SPR assay using BIACORE T200 (cytiva: Former GE Healthcare).” left out
(§3) Using these Peptide Samples, kinetics of peptides against CD38 was measured. The method adopted for sample measurement was a single-cycle kinetics method. The analysis was conducted using the evaluation software provided with Biacore T200. A DMSO correction curve obtained by solvent correction measurements was applied for the analysis. […]
as §2

For assay [5] the target is unchanged. Description: SPR (Biacore T200), single-cycle kinetics, CD38 immobilised on CM3 chip, 1:1 Binding model, 25 °C; figure legend names I-1; Table 4 prints 1.8*10^-3 for this constant. The method, then: as §1, with “For example, the binding constant of I-1 (SEQ ID NO. 1; same as below) and I-2 (SEQ ID NO. 2; same as below) to CD38 was analyzed by a SPR assay using BIACORE T200 (cytiva: Former GE Healthcare).” left out
as §3, §2

Assay [6] shares this target. As to the kind of experiment: SPR (Biacore T200), CD38 immobilised on CM3 chip, single-cycle kinetics. As for the experimental part: as §1, with “For example, the binding constant of I-1 (SEQ ID NO. 1; same as below) and I-2 (SEQ ID NO. 2; same as below) to CD38 was analyzed by a SPR assay using BIACORE T200 (cytiva: Former GE Healthcare).” left out
as §3, §2

Assay [7] has the same target. Description: SPR (Biacore T200), single-cycle kinetics, CD38 immobilised on CM3 chip, 1:1 Binding model, 25 °C; figure legend names I-1 and the panel matches Table 4 (7.7*10^5, rounded there). As for the experimental part: as §1, with “For example, the binding constant of I-1 (SEQ ID NO. 1; same as below) and I-2 (SEQ ID NO. 2; same as below) to CD38 was analyzed by a SPR assay using BIACORE T200 (cytiva: Former GE Healthcare).” left out
as §3, §2

Assay [8] shares this target. As to the kind of experiment: SPR (Biacore T200), single-cycle kinetics, CD38 immobilised on CM3 chip, 1:1 Binding model, 25 °C; figure legend names I-2 and the panel matches Table 4 (3.6*10^5, rounded there). The method, then: as §1, with “For example, the binding constant of I-1 (SEQ ID NO. 1; same as below) and I-2 (SEQ ID NO. 2; same as below) to CD38 was analyzed by a SPR assay using BIACORE T200 (cytiva: Former GE Healthcare).” left out
as §3, §2

Assay [9] has the same target. Description: SPR (Biacore T200), single-cycle kinetics, CD38 immobilised on CM3 chip, 1:1 Binding model, 25 °C; figure legend names I-2 and the panel matches Table 4 (1.3*10^-2, rounded there). As for the experimental part: as §1, with “For example, the binding constant of I-1 (SEQ ID NO. 1; same as below) and I-2 (SEQ ID NO. 2; same as below) to CD38 was analyzed by a SPR assay using BIACORE T200 (cytiva: Former GE Healthcare).” left out
as §3, §2

Assay [10] has the same target. Description: SPR (Biacore T200), single-cycle kinetics, CD38 immobilised on CM3 chip, 1:1 Binding model, 25 °C; figure legend names I-2 and the panel matches Table 4 (3.5*10^-8, rounded there). The method, then:
as §1, with “For example, the binding constant of I-1 (SEQ ID NO. 1; same as below) and I-2 (SEQ ID NO. 2; same as below) to CD38 was analyzed by a SPR assay using BIACORE T200 (cytiva: Former GE Healthcare).” left out
as §3, §2

The target is the same in assay [11]. Description: ELISA. This is another data set of the same source.

On to `CC(C)C[C@@H]1NC(=O)[C@H](C)NC(=O)CSC[C@@H](C(N)=O)NC(=O)[C@H](C(C)C)NC(=O)[C@H](Cc2c[nH]c3ccccc23)NC(=O)[C@H](C(C)C)NC(=O)[C@H](Cc2ccc(-c3ccccc3)cc2)NC(=O)[C@@H]2CCCN2C(=O)[C@H](CC(C)C)NC(=O)[C@H](C(C)C)NC(=O)[C@H](Cc2ccccc2)N(C)C(=O)[C@H](Cc2c[nH]cn2)NC1=O` [I-2] ({CH2CO}-ALH[NMeF]VLP[Bip]VWVC-NH2; thioether N-12), for which the “Binding Assay” value in [1] is reported as 1.69. For the same molecule, the kon in assay [2] (read-out: Ka (association rate constant)) stood at 360000 M⁻¹ s⁻¹. For the same molecule, the koff in [2] (read-out: Kd (dissociation rate constant)) is 0.013 s⁻¹.

B1: Compound I-1 (SEQ ID NO. 1) (peptide)
peptide: {CH2CO}-AR[Ahp(2)]YHDGVL[Bip][Ahp(2)]DC
modifications: thioether N-13
notes: Ala Arg Ahp Tyr His Asp Gly Val Leu Bph Ahp Asp Cys
Regarding B1, the “Binding Assay (larger values indicate stronger binding)” value in [3] came to 1.97. In addition, the results for the Kd in assay [4] and in assay [6] were 2.27 nM and 2.3 nM, respectively. In addition, in assay [5], the koff turned out to be 0.00175 s⁻¹. The kon in assay [7] was determined as 769000 M⁻¹ s⁻¹.

B2: Compound I-2 (SEQ ID NO. 2) (peptide)
peptide: ALHXVLPXVWVC
modifications: not fully specified; MePhe (N-methyl-L-phenylalanine) at 4; Bph at 8; cyclic peptide (N-terminal ClAc-Ala cyclised with the C-terminal Cys), structure given as a drawing
notes: Printed as Ala Leu His MePhe Val Leu Pro Bph Val Trp Val Cys
Turning to B2, in [8], the kon amounted to 358000 M⁻¹ s⁻¹. For the same molecule, the koff in [9] amounted to 0.0127 s⁻¹. In addition, the Kd stood at 35.4 nM in assay [10] and 35 nM in [6]. Moreover, the “Binding Assay (larger values indicate stronger binding)” value in assay [11] turned out to be 1.69.

By Kd is commonly meant the free concentration of one partner at which half of the binding sites on the other are occupied at equilibrium, for simple one-to-one binding.
